In patent publication US20170066831A1 (Janssen / Centocor, published 2017):
Changes are numbered by the printed parent chain. Names may count otherwise.

T1: human ST2L, full length, on cells (human, UniProt Q01638 19-556)
T1 sequence: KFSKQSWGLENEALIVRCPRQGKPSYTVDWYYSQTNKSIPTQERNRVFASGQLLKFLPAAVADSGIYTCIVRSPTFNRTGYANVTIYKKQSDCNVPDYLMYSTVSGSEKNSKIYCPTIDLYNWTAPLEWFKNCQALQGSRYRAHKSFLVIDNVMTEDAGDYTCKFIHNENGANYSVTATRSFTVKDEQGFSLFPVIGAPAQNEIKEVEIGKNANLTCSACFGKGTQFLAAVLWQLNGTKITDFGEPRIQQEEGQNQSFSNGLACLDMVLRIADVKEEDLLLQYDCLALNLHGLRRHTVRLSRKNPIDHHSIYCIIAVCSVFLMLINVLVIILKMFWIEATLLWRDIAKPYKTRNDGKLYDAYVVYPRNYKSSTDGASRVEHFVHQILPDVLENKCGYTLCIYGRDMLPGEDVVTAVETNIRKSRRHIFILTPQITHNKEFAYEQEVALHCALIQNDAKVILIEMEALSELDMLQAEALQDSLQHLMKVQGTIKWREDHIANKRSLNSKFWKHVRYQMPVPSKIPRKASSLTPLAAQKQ

T2: mouse ST2L extracellular domain (mouse, UniProt P14719 28-326)
T2 construct: also called mouse ST2L-ECD; muST2L-ECD
T2 sequence: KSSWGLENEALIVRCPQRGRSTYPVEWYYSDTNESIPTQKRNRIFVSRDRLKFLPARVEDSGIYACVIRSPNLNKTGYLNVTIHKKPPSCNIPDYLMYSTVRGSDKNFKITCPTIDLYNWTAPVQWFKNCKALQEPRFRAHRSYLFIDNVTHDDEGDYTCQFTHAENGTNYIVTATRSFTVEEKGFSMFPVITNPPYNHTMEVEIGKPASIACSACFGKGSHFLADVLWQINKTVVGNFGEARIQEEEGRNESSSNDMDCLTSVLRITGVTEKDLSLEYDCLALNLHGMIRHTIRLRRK

T3: human ST2L extracellular domain with C-terminal His6 tag (human, UniProt Q01638 19-328)
T3 construct: also called huST2L-ECD; ST2L-ECD
T3 sequence: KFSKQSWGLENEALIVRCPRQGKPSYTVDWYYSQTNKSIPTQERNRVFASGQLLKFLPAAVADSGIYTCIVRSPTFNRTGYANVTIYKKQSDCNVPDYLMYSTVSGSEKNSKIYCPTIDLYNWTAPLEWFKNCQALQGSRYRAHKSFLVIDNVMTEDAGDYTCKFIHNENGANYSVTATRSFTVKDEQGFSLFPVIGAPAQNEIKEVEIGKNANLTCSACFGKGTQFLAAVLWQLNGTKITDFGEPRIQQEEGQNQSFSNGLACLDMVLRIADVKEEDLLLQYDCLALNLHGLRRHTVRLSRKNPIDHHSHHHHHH

T4: cynomolgus (Macaca fascicularis) ST2L extracellular domain with C-terminal His6 tag (Macaca fascicularis (cynomolgus), UniProt Q01638 19-321 (human entry))
T4 construct: also called cyno ST2L-ECD; cynoST2L-ECD
T4 chain: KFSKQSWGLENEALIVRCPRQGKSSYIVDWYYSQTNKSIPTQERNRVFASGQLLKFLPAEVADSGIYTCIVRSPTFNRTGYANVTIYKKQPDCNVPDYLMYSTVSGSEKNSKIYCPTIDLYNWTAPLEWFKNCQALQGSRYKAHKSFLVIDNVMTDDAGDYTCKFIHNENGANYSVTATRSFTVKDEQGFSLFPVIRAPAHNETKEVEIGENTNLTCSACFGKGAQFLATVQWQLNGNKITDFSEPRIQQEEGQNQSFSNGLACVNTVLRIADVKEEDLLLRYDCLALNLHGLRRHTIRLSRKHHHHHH

B1: STLM210 (antibody, V domains shown)
VH: EVQLLESGGGLVQPGGSLRLSCAASGFTFSDDAMIWVRQAPGKGLEWVSYIGGNGGTTYYADSVKGRFTISRDNSKNTLYLQMNSLRAEDTAVYYCARDPWSTEGSFFVLDYWGQGTLVTVSS
VL: EIVLTQSPATLSLSPGERATLSCRASQSVDDDLAWYQQKPGQAPRLLIYDASNRATGIPARFSGSGSGTDFTLTISSLEPEDFAVYYCQQYNDAITFGQGTKVEIK
notes: frameworks VH3-23 / Vk-L6
B2: STLM212 (antibody, V domains shown)
VH: B1 VH with D31V, D32Y, A33D, Y50T, G52R, N54E, T57G
VL: B1 VL
notes: frameworks VH3-23 / Vk-L6
B3: STLM226 (antibody, V domains shown)
VH: EVQLVQSGAEVKKPGATVKISCKVSAFNIKDDYMHWVQQAPGKGLEWMGRIDPAIGNTEYAEKFQGRVTITADTSTDTAYMELSSLRSEDTAVYYCATGDFYAMAYWGQGTLVTVSS
VL: DIQMTQSPSSLSASVGDRVTITCITNTDIDDVIHWYQQKPGKAPKLLIYEGNTLRPGVPSRFSGSGSGTDFTLTISSLQPEDFATYYCLQSDNLLTFGQGTKLEIK
notes: VH STLH201 + VL STLL280
B4: STLM229 (antibody, V domains shown)
VH: B3 VH
VL: B3 VL with L11V, L94M
notes: VH STLH201 + VL STLL275
B5: STLM230 (antibody, V domains shown)
VH: B3 VH
VL: B3 VL with L94M
notes: VH STLH201 + VL STLL274
B6: STLM228 (antibody, V domains shown)
VH: B3 VH
VL: B3 VL with S10T, D70E, E81D, L94M
notes: VH STLH201 + VL STLL276
B7: STLM227 (antibody, V domains shown)
VH: B3 VH
VL: B3 VL with M4L, S10F, D70E, L94M
notes: VH STLH201 + VL STLL277
B8: STLM231 (antibody, V domains shown)
VH: B3 VH
VL: B3 VL with A43V, F83V, L94M
notes: VH STLH201 + VL STLL273; also called S1LM231
B9: STLM232 (antibody, V domains shown)
VH: B3 VH
VL: B3 VL with L73F, F83I, L94M
notes: VH STLH201 + VL STLL272
B10: ST2M48 (antibody, V domains shown)
VH: EVQLVQSGAEVKKPGESLKISCKGSGYSFTSYWIGWVRQMPGKGLEWMGIIYPGDSYTRYSPSFQGQVTISADKSISTAYLQWSSLKASDTAMYYCARLSGRFDYWGQGTLVTVSS
VL: EIVLTQSPATLSLSPGERATLSCRASQSVRDALAWYQQKPGQAPRLLIYFASNRATGIPARFSGSGSGTDFTLTISSLEPEDFAVYYCQQFNTWPITFGQGTKVEIK
notes: Phage-derived Fab converted to IgG
B11: C2519 (antibody, V domains shown)
VH: EFQLQQSGPELVKPGASVKISCKASGYSFTDYNMNWVKQSHGKSLEWIGNINPYYGSTTYNQKFKGKATLTVDKSSNTAYMHLNSLTSEDSAVYYCAREGDTYLAWFAYWGQGTLVTVSA
VL: DVLMTQTPLSLPVSLGDQASISCRSSQSIVYSNGNTYLEWYLQKPGQSPKLLIYKVSNRFSGVPDRFSGSGSGTDFTLKISRVEAEDLGVYYCFQGSHVPPTFGGGTKLEIK
notes: Mouse hybridoma antibody; also called C2519A
B12: C2521 (antibody, V domains shown)
VH: QIQLQQSGPELVRPGTSVKISCKASGYTFLTYWMNWVKQRPGQGLEWIGQIFPASGSTYYNEMFKDKATLTVDTSSSTAYMQLSSLTSEDTAVYFCARSENIYYINFQYYFAYWGQGTTLTVSS
VL: ILLTQSPAILSVSPGERVSFSCRASQNIGTRMHWYQQRTNGSPRLLIKYASESISGIPSRFSGSGSGTDFTLTISSVESEDIADYYCQQSNTWPFTFGSGTKLEIK
notes: Mouse hybridoma antibody; also called C2521A

What follows are binders tested against T1, human ST2L, full length, on cells (assay: cell-based or functional assay).

Binder | RGA IC50 [µg/mL]
B1 | 2.1
B2 | 4.32
B3 | 0.25
B4 | 0.32
B5 | 0.15
B6 | 0.28
B7 | 0.23
B8 | 1.1
B9 | 0.15

Each binder was assayed against T2, mouse ST2L extracellular domain (assay: domain binding assay).
Procedure: Antibody binding to ST2L domain I, II and III was determined using standard capture ELISA assay using electrochemiluminescent detection format (Meso-Scale Discovery (MSD) technology). 10 μg/mL of each antibody was coated onto each well of an MSD HighBind plate (5 μL/well) for 2 hr at room temperature. […] The plate was covered with aluminum foil and incubated for 1 hr at room temperature with gentle shaking. The plate was then washed 3 times with HEPES wash buffer. MSD read buffer (150 μl) was added to each well, and the plate was then read using an MSD Sector Imager 6000.

Binder | binding result
B10 | binds

Each binder was assayed against T3, human ST2L extracellular domain with … (assay: RLB ELISA: biotinylated IL-33 on coated huST2L-ECD, antibody titrated).
Procedure: 96-well plate was coated with 50 μl of 4 μg/ml human ST2L-ECD (amino acids 19-328 of SEQ ID NO: 1) or 2 μg/ml cyno ST2L-ECD (amino acids 19-321 of SEQ ID NO: 2) having C-terminal His₆ tag in bicarbonate buffer at 4° C. for 16 hrs. All subsequent steps were performed at room temperature. Plate was blocked with 200 μl blocking buffer, and was washed 3 times with 300 μl of wash buffer containing PBS+0.05% Tween. 30 μl of various dilutions of anti-ST2L mAbs were added to the wells and incubated for 1 hour. For human receptor-ligand binding assay 20 μl of biotinylated human IL-33 (residues 112-270 of SEQ ID NO: 3) was added at 100 ng/ml final concentration and incubated for 30 minutes. For cyno receptor-ligand binding assay 20 μl of biotinylated cyno IL-33 (residues 112-269 of SEQ ID NO: 4) was added at 200 ng/ml final concentration and incubated for 30 minutes. The plate was washed 3 times with 300 μl of wash buffer. 50 μl of 0.2 μg/ml Streptavidin-HRP (Jackson Immunoresearch) was added and incubated for 30 min. The plate was washed 3 times with 300 μl of wash buffer containing PBS+0.05% Tween. 50 μl of TMB substrate (EMD Biosciences) was added to each well. Reaction was stopped by the addition of 100 μl of 0.2N Sulfuric Acid. OD450 were measured using Envision plate reader (Perkin Elmer).

Binder | IC50 [µg/mL]
B1 | 0.3
B2 | 0.33
B3 | 0.26
B4 | 0.29
B5 | 0.28
B6 | 0.2
B7 | 0.17
B8 | 0.26
B9 | 0.31

The binders below were run against T3, human ST2L extracellular domain with … (assay: SPR, mAb captured, ST2L-ECD in solution).

Binder | Kd [pM] | koff [s⁻¹] | kon [M⁻¹ s⁻¹]
B11 | 180 | 8.7e-05 | 483000
B12 | 79 | 4.9e-05 | 618000
B10 | 56 | 7.33e-05 | 1.32e+06

Biological target: T4, cynomolgus (Macaca fascicularis) ST2L …
Assay: SPR, mAb captured, ST2L-ECD in solution

Binder | Kd [pM] | koff [s⁻¹] | kon [M⁻¹ s⁻¹]
B11 | 44800 | 0.0032 | 71400
B12 | 3710 | 0.00166 | 447000
B10 | 257 | 0.00265 | 1.03e+07

Biological target: T3, human ST2L extracellular domain with …
Assay: SPR, mAb captured, ST2L-ECD in solution
Remark: another data set of the same source

Binder | Kd [pM] | koff [s⁻¹] | kon [M⁻¹ s⁻¹]
B1 | 19 | 0.000227 | 1.21e+07
B2 | 32 | 0.000398 | 1.24e+07
B3 | 90 | 0.00193 | 2.16e+07
B4 | 35 | 0.000445 | 1.29e+07
B5 | 38 | 0.000426 | 1.11e+07
B6 | 52 | 0.00104 | 2.01e+07
B7 | 64 | 0.0017 | 2.66e+07
B8 | 46 | 0.000913 | 1.97e+07
B9 | 25 | 0.000449 | 1.78e+07

Biological target: T4, cynomolgus (Macaca fascicularis) ST2L …
Assay: SPR, mAb captured, ST2L-ECD in solution
Remark: another data set of the same source

Binder | Kd [pM] | koff [s⁻¹] | kon [M⁻¹ s⁻¹]
B1 | 9 | 0.000528 | 5.7e+07
B2 | 24 | 0.000346 | 1.43e+07
B3 | 301 | 0.0301 | 1e+08
B4 | 85 | 0.0085 | 1e+08
B5 | 144 | 0.0073 | 5.06e+07
B6 | 155 | 0.0155 | 1e+08
B7 | 294 | 0.0294 | 1e+08
B8 | 172 | 0.0143 | 8.27e+07
B9 | 80 | 0.00797 | 1e+08
